Data reported in the Human Domainome abundance scans (Beltran et al. 2025).
± gives the uncertainty stated by the source.

B1: Steroid hormone receptor ERR2, residues 100 to 176; numbered along this chain, O95718 (parent)
chain: KRLCLVCGDIASGYHYGVASCEACKAFFKRTIQGNIEYSCPATNECEITKRRRKSCQACRFMKCLKVGMLKEGVRLD

Variants of: B1
Assay: abundance fitness (aPCA) (normalised: wild type 0, dead -1); higher = more abundant; growth selection in yeast, the domain comes from the species named
Details: Homo sapiens

Abundance fitness: each site, then its substitutions
T43: A 0.081 ± 0.046, C -0.651 ± 0.11, I -0.065 ± 0.1, Q -0.175 ± 0.068, V -0.012 ± 0.044, P -0.393 ± 0.086, W -0.021 ± 0.046, Y -0.252 ± 0.18, D -0.152 ± 0.086, K 0.212 ± 0.051, R 0.043 ± 0.035, S -0.237 ± 0.051, H -0.459 ± 0.15, F -0.558 ± 0.14, N -0.085 ± 0.083, E 0.042 ± 0.053, M 0.03 ± 0.061, L -0.234 ± 0.05
Q33: S -0.252 ± 0.067, K -0.212 ± 0.094, I -0.697 ± 0.22, W -0.411 ± 0.073, Y -0.054 ± 0.14, T -0.193 ± 0.089, H -0.229 ± 0.11, E -0.03 ± 0.06, N -0.383 ± 0.13, M -0.279 ± 0.087, A -0.075 ± 0.054, C -0.114 ± 0.068, V -0.148 ± 0.048, R -0.307 ± 0.047, L -0.146 ± 0.051, D -0.081 ± 0.082, F -0.577 ± 0.22, G -0.165 ± 0.043
S39: A 0.319 ± 0.038, W 0.22 ± 0.047, C 0.189 ± 0.06, N 0.397 ± 0.1, L 0.283 ± 0.038, E 0.303 ± 0.043, D 0.441 ± 0.076, I 0.19 ± 0.086, K 0.305 ± 0.051, F 0.374 ± 0.1, M 0.39 ± 0.048, T 0.254 ± 0.053, V 0.294 ± 0.037, H 0.103 ± 0.13, G 0.19 ± 0.036, Y 0.283 ± 0.089, P 0.089 ± 0.067
N44: F 0.068 ± 0.14, H -0.314 ± 0.12, D 0.119 ± 0.086, G 0.117 ± 0.038, E 0.022 ± 0.048, C -0.473 ± 0.13
N35: A 0.069 ± 0.045, L -0.298 ± 0.05, V -0.133 ± 0.045, P 0.012 ± 0.069, H 0.031 ± 0.094, I -0.593 ± 0.17, C -0.12 ± 0.073, E 0.157 ± 0.046, T -0.017 ± 0.056, Q 0.05 ± 0.055, W -0.298 ± 0.057, R -0.047 ± 0.038, G 0.271 ± 0.035, S -0.129 ± 0.053, K 0.027 ± 0.055, F -0.275 ± 0.12, Y -0.178 ± 0.12, D 0.111 ± 0.079, M -0.317 ± 0.067
K29: H -0.067 ± 0.1, Q 0.129 ± 0.054, I -0.481 ± 0.12, G 0.096 ± 0.034, V 0.079 ± 0.038, Y -0.65 ± 0.25, S 0.084 ± 0.045, M -0.064 ± 0.065, A 0.18 ± 0.043, T 0.215 ± 0.049, P -0.841 ± 0.16, R 0.085 ± 0.039, E 0.217 ± 0.053, N -0.193 ± 0.11, C -0.335 ± 0.11, F -0.132 ± 0.087, D -0.014 ± 0.072
P41: S -0.137 ± 0.047, V 0.093 ± 0.04, R -0.158 ± 0.042, Q -0.045 ± 0.063, W -0.253 ± 0.065, K -0.037 ± 0.06, L -0.134 ± 0.045, M -0.161 ± 0.061, A 0.056 ± 0.043, T -0.147 ± 0.063, F -0.214 ± 0.1, C -0.045 ± 0.057, Y 0.018 ± 0.069, H -0.028 ± 0.087, G 0.128 ± 0.039, D 0.213 ± 0.059, E 0.057 ± 0.053, N 0.123 ± 0.074, I -0.071 ± 0.078
F28: Q -0.761 ± 0.14, A -0.321 ± 0.054, N -0.922 ± 0.35, G -0.687 ± 0.055, E -0.638 ± 0.084, C -0.843 ± 0.16, V -0.315 ± 0.047, R -0.757 ± 0.065, K -0.694 ± 0.11, H -0.748 ± 0.18, P -0.725 ± 0.14, S -0.832 ± 0.1, T -0.664 ± 0.12, Y -0.78 ± 0.2, W 0.167 ± 0.039, L -0.413 ± 0.051
T31: S -0.175 ± 0.054, M -0.223 ± 0.073, W -0.925 ± 0.11, E -0.744 ± 0.12, D -0.724 ± 0.2, H -0.655 ± 0.18, L -0.83 ± 0.083, F -1.1 ± 0.43, R -0.678 ± 0.06, I -0.295 ± 0.12, N -0.546 ± 0.35, G -0.484 ± 0.052, C -0.423 ± 0.086, A -0.353 ± 0.061, V -0.223 ± 0.048, P -0.951 ± 0.19
E37: N -0.575 ± 0.21, R -0.371 ± 0.053, Q -0.41 ± 0.1, C -0.158 ± 0.1, H -0.19 ± 0.14, W -0.543 ± 0.079, T -0.796 ± 0.21, F -0.851 ± 0.42, Y -0.745 ± 0.26, M -0.654 ± 0.14, I -0.341 ± 0.18, G -0.122 ± 0.041, D -0.423 ± 0.12, K -0.532 ± 0.13, L -0.657 ± 0.09, P -0.507 ± 0.14
K25: Q 0.317 ± 0.045, D 0.375 ± 0.049, C 0.284 ± 0.051, L 0.224 ± 0.033, S 0.222 ± 0.04, G 0.41 ± 0.029, Y 0.273 ± 0.067, A 0.445 ± 0.035, M 0.286 ± 0.048, T 0.146 ± 0.046, V 0.344 ± 0.034, F 0.194 ± 0.063, E 0.41 ± 0.037, P 0.278 ± 0.051, I 0.091 ± 0.063, R 0.208 ± 0.031, H 0.262 ± 0.062
A42: M -0.033 ± 0.071, I 0.027 ± 0.094, L -0.064 ± 0.042, S -0.098 ± 0.05, D 0.045 ± 0.065, Q -0.191 ± 0.068, E 0.027 ± 0.055, W -0.043 ± 0.043, F -0.209 ± 0.09, V -0.153 ± 0.049, C -0.501 ± 0.1, K -0.087 ± 0.062, G -0.025 ± 0.037, R -0.024 ± 0.039, H -0.445 ± 0.13
F27: A -0.621 ± 0.071, Q -0.945 ± 0.13, V -0.535 ± 0.064, P -0.573 ± 0.12, L -0.204 ± 0.043, W -0.578 ± 0.068, S -0.746 ± 0.093, G -0.745 ± 0.06, N -1.01 ± 0.27, R -0.715 ± 0.061, C -0.119 ± 0.063, D -0.751 ± 0.18, H -0.765 ± 0.22, I -0.434 ± 0.16, K -0.506 ± 0.077, M -0.473 ± 0.073
G34: Y 0.075 ± 0.1, N -0.058 ± 0.15, E 0.157 ± 0.051, V -0.186 ± 0.046, T -0.088 ± 0.063, F 0.144 ± 0.072, I -0.336 ± 0.2, R -0.033 ± 0.037, H -0.282 ± 0.12, P -0.904 ± 0.18, A 0.135 ± 0.043, C -0.227 ± 0.078, M -0.041 ± 0.062, W -0.08 ± 0.048, D 0.116 ± 0.092, Q 0.254 ± 0.057
I36: P -0.182 ± 0.081, A -0.032 ± 0.048, M -0.074 ± 0.056, F -0.095 ± 0.11, V 0.003 ± 0.044, L -0.162 ± 0.048, G -0.273 ± 0.041, W -0.231 ± 0.053, Y -0.235 ± 0.09, T -0.288 ± 0.078, Q -0.16 ± 0.064, N -0.185 ± 0.13, H -0.167 ± 0.11, R -0.26 ± 0.043, K -0.129 ± 0.062, D -0.062 ± 0.077, C -0.037 ± 0.076
C24: N -0.939 ± 0.3, R -0.744 ± 0.061, P -1.13 ± 0.22, W -0.784 ± 0.075, T -1 ± 0.15, S -0.869 ± 0.11, V -0.906 ± 0.084, Q -0.685 ± 0.12, Y -0.837 ± 0.2
R30: F -0.763 ± 0.19, G -0.006 ± 0.037, A -0.312 ± 0.065, I -0.775 ± 0.24, Q 0.109 ± 0.057, D -0.255 ± 0.16, P -0.989 ± 0.26, L -0.466 ± 0.061, E 0.125 ± 0.049, W -0.121 ± 0.05, N -0.381 ± 0.38, C -0.573 ± 0.12, M -0.355 ± 0.082, T -0.193 ± 0.087, Y -0.799 ± 0.23, H -0.357 ± 0.14
C40: V -0.688 ± 0.082, Y -0.247 ± 0.19, F -0.876 ± 0.31, R -0.734 ± 0.074, G -0.711 ± 0.068, P -0.684 ± 0.13, D -0.982 ± 0.37, Q -0.604 ± 0.12, I -0.443 ± 0.17, E -0.726 ± 0.11, A -0.91 ± 0.12, S -0.632 ± 0.094, M -0.742 ± 0.13, K -0.781 ± 0.17, N -0.586 ± 0.26, W -0.94 ± 0.12
I32: T -0.222 ± 0.067, F -0.115 ± 0.12, V 0.055 ± 0.044, A -0.21 ± 0.054, L -0.362 ± 0.059, E -0.148 ± 0.053, D -0.642 ± 0.17, N -0.568 ± 0.19, M -0.47 ± 0.096, C -0.803 ± 0.26, G -0.344 ± 0.048, Q -0.422 ± 0.082, K -0.337 ± 0.08, P -0.589 ± 0.16, S -0.184 ± 0.059
Y38: H -0.196 ± 0.17, M -0.548 ± 0.11, F -0.037 ± 0.13, A -0.554 ± 0.085, T -0.636 ± 0.13, V -0.541 ± 0.089, C -0.293 ± 0.1, W 0.097 ± 0.047, G -0.394 ± 0.057, E -0.586 ± 0.11, P -0.547 ± 0.13, L -0.398 ± 0.061, D -0.979 ± 0.37, Q -0.841 ± 0.16, K -0.725 ± 0.15, S -0.518 ± 0.08, R -0.347 ± 0.049, I -0.421 ± 0.36
A26: F -0.467 ± 0.12, E 0.162 ± 0.048, V 0.114 ± 0.043, W -0.075 ± 0.042, G 0.121 ± 0.036, D 0.035 ± 0.081, L -0.135 ± 0.043, C -0.046 ± 0.061, M -0.116 ± 0.058, I -0.334 ± 0.18, Q 0.051 ± 0.05, K -0.229 ± 0.066, H 0.095 ± 0.089, S -0.338 ± 0.063, Y -0.561 ± 0.17, N -0.504 ± 0.17, P -0.569 ± 0.11
